{"source": "patent US20110158985A1", "about": "(published 2011)", "binders": {"B1": {"name": "AFFF(1) IgG (antibody, V domains shown)", "VH": "QVTLRESGPALVKPTQTLTLTCTFSGFSLSTAGMSVGWIRQPPGKALEWLADIWWDDKKDYNPSLKSRLTISKDTSKNQVVLKVTNMDPADTATYYCARSMITNFYFDVWGQGTTVTVSS", "VL": "DIQMTQSPSTLSASVGDRVTITCSASSSVGYMHWYQQKPGKAPKLLIYDTFKLASGVPSRFSGSGSGTEFTLTISSLQPDDFATYYCFQGSFYPFTFGGGTKVEIKR"}, "B2": {"name": "A1e9 Fab (Fab, V domains shown)", "VH": "B1 VH with D57G, D60H, S67D, S100D, T103F, F105W", "VL": "DIQMTQSPSTLSASVGDRVTITCSLSSRVGYMHWYQQKPGKAPKLLIYDTFKLSSGVPSRFSGSGSGTEFTLTISSLQPDDFATYYCFQGSGYPFTFGGGTKVEIK", "notes": "also called Ale9"}, "B3": {"name": "A13c4 Fab (Fab, V domains shown)", "VH": "B1 VH with D57G, D60S, S67D, S100D, T103F", "VL": "B2 VL with F51M, K52Y, L53Q"}, "B4": {"name": "A12a6 Fab (Fab, V domains shown)", "VH": "B1 VH with D57G, S67D, S100D, T103F", "VL": "B2 VL with L25A"}, "B5": {"name": "P12f2 Fab (Fab, V domains shown)", "VH": "B1 VH with A32P, D60H, S67D, S100D, T103F", "VL": "B2 VL with K52Y"}, "B6": {"name": "A13a11 Fab (Fab, V domains shown)", "VH": "B1 VH with D60H, S67D, S100D, T103F, F105W", "VL": "B2 VL with L25P, F51Y, K52R, L53H"}, "B7": {"name": "P11d4 Fab (Fab, V domains shown)", "VH": "B1 VH with A32P, D57G, D60H, S67D, S100D, T103F, F105W", "VL": "B2 VL with L25P, F51M, K52R, S54A"}}, "note": "Positions count from the first letter of the chain named. Values joined by “and” are separate entries in the source; they are usually repeats but may differ in a detail not shown here. Identical values can stand only once.", "data": [{"biological_target": "T1, F protein of RSV (Long strain) (RSV (Long strain), UniProt P12568 26-574)", "assay": "cell-based or functional assay", "values": [{"binder": "B1", "Microneutralization IC50, IgG": "2.04 nM and 0.306 µg/ml"}, {"binder": "B2", "Microneutralization IC50, Fab": "0.157 µg/ml and 3.14 nM"}, {"binder": "B3", "Microneutralization IC50, Fab": "0.0264 µg/ml and 0.53 nM"}, {"binder": "B4", "Microneutralization IC50, Fab": "0.0287 µg/ml and 0.57 nM"}, {"binder": "B5", "Microneutralization IC50, Fab": "0.0407 µg/ml and 0.81 nM"}, {"binder": "B6", "Microneutralization IC50, Fab": "0.012 µg/ml and 2.4 nM"}]}, {"biological_target": "T1, F protein of RSV (Long strain)", "assay": "cell-based or functional assay", "remark": "another data set of the same source", "values": [{"binder": "B1", "Microneutralization IC50, IgG": "0.306 µg/ml and 2.04 nM"}]}, {"biological_target": "RSV F protein (purified) (respiratory syncytial virus)", "assay": "SPR (BIAcore), F protein immobilised", "values": [{"binder": "B1", "koff": "0.000274 s⁻¹ and 0.000266 s⁻¹ and 0.000206 s⁻¹", "kon": "108000 M⁻¹ s⁻¹ and 96000 M⁻¹ s⁻¹ and 124000 M⁻¹ s⁻¹"}, {"binder": "B7", "koff": "0.000717 s⁻¹", "kon": "570000 M⁻¹ s⁻¹ and 572000 M⁻¹ s⁻¹"}, {"binder": "B2", "koff": "0.000453 s⁻¹", "kon": "790000 M⁻¹ s⁻¹"}, {"binder": "B3", "koff": "0.00028 s⁻¹", "kon": "781000 M⁻¹ s⁻¹ and 735000 M⁻¹ s⁻¹"}, {"binder": "B4", "koff": "0.00023 s⁻¹", "kon": "743000 M⁻¹ s⁻¹"}, {"binder": "B5", "koff": "0.000282 s⁻¹", "kon": "663000 M⁻¹ s⁻¹"}, {"binder": "B6", "koff": "0.00025 s⁻¹", "kon": "735000 M⁻¹ s⁻¹"}]}, {"biological_target": "T2, recombinant C-terminally truncated RSV (A2 strain) F protein (RSV (A2 strain), UniProt P03420 26-524)", "T2 construct": "extracellular domain; also called truncated F protein; extracellular domain of the F protein from RSV A2", "assay": "SPR (BIAcore), IgG over immobilised F", "units": {"koff": "s⁻¹", "kon": "M⁻¹ s⁻¹"}, "values": [{"binder": "B1", "koff": "≤ 5e-06", "kon": 127000}]}, {"biological_target": "T1, F protein of RSV (Long strain)", "assay": "cell-based or functional assay", "remark": "another data set of the same source", "units": {"Mean IC50 (Control)": "µg/mL", "Mean IC50 (Curve)": "µg/mL"}, "values": [{"binder": "B7", "Mean IC50 (Control)": "> 1", "Mean IC50 (Curve)": "> 1"}, {"binder": "B2", "Mean IC50 (Control)": 0.125, "Mean IC50 (Curve)": 0.157}, {"binder": "B3", "Mean IC50 (Control)": 0.0258, "Mean IC50 (Curve)": 0.0264}, {"binder": "B4", "Mean IC50 (Control)": 0.031, "Mean IC50 (Curve)": 0.0287}, {"binder": "B5", "Mean IC50 (Control)": 0.0326, "Mean IC50 (Curve)": 0.0407}, {"binder": "B6", "Mean IC50 (Control)": 0.102, "Mean IC50 (Curve)": 0.12}]}, {"biological_target": "T2, recombinant C-terminally truncated RSV …", "assay": "SPR (BIAcore), IgG over immobilised F", "remark": "another data set of the same source", "units": {"Kd": "nM", "koff": "s⁻¹", "kon": "M⁻¹ s⁻¹"}, "values": [{"binder": "B1", "Kd": "≤ 0.039", "koff": "≤ 5e-06", "kon": 127000}]}, {"biological_target": "T1, F protein of RSV (Long strain)", "assay": "cell-based or functional assay", "remark": "another data set of the same source", "units": {"IC50": "nM"}, "values": [{"binder": "B7", "IC50": "> 20"}, {"binder": "B2", "IC50": 2.5}, {"binder": "B3", "IC50": 0.52}, {"binder": "B4", "IC50": 0.62}, {"binder": "B5", "IC50": 0.65}, {"binder": "B6", "IC50": 2.04}]}, {"biological_target": "T2, recombinant C-terminally truncated RSV …", "assay": "SPR (BIAcore), Fab over immobilised F", "units": {"Kd": "nM", "koff": "s⁻¹", "kon": "M⁻¹ s⁻¹"}, "values": [{"binder": "B7", "Kd": 0.682, "koff": 0.000389, "kon": 570000}, {"binder": "B2", "Kd": 0.216, "koff": 0.000113, "kon": 523000}, {"binder": "B3", "Kd": 0.172, "koff": 0.000112, "kon": 650000}, {"binder": "B4", "Kd": 0.422, "koff": 0.000219, "kon": 519000}, {"binder": "B5", "Kd": 0.135, "koff": "7.2e-05", "kon": 535000}, {"binder": "B6", "Kd": 0.337, "koff": 0.000229, "kon": 680000}]}]}
